T1: Human PTK7 Protein, His Tag (Acro Biosystems) (human, UniProt Q13308 31-704)
T1 construct: Bought His-tagged recombinant human PTK7; also called CCK4; Tyrosine-protein kinase-like 7
T1 sequence: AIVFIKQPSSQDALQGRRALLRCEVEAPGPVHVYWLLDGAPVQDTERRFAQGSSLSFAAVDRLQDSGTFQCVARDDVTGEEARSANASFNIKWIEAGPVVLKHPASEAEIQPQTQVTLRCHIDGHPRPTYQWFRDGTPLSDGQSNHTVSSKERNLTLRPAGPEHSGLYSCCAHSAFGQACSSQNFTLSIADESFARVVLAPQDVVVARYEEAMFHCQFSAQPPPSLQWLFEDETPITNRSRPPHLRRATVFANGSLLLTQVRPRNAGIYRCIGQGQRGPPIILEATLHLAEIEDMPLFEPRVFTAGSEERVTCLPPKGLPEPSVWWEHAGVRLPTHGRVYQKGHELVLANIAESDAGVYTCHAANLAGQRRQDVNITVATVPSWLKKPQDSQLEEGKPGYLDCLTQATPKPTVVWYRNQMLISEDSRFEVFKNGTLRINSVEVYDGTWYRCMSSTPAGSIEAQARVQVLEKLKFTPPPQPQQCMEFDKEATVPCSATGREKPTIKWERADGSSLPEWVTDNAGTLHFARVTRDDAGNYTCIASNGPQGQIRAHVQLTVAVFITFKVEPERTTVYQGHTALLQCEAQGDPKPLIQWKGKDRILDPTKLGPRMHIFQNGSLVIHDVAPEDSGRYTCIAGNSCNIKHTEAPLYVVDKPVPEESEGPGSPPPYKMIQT

T2: Human PTK7 Protein, His Tag, Acro Biosystems (human, UniProt Q13308 31-704)
T2 construct: Bought protein; also called CCK4; not shown: His tag
T2 sequence: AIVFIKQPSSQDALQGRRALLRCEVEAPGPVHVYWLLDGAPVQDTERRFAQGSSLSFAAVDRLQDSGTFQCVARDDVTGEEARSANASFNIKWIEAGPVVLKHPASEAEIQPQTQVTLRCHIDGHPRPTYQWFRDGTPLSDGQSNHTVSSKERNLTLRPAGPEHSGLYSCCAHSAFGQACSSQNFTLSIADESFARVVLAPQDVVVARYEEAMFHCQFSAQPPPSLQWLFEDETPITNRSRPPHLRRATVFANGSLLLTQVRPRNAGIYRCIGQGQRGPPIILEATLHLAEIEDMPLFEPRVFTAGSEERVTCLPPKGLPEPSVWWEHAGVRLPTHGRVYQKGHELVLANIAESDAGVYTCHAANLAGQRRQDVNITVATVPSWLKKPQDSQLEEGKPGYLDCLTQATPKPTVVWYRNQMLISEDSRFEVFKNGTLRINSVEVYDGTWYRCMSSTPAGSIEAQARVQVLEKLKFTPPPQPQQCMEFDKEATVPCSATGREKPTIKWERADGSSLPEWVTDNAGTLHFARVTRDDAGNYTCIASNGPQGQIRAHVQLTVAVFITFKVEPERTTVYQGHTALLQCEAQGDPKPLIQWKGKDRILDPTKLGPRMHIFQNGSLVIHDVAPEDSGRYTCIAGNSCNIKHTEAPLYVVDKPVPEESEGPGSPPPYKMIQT


These binders were tested against T1, Human PTK7 Protein, His Tag (Acro …) (assay: BLI (Octet), antibody on anti-human Fc sensor, 50 nM PTK7; 2 = substantially similar binding).

Row | Binder | binding result
1 | MYT10988 (antibody, V domains shown, MYT9359 HC variant; captured on anti-human Fc sensor) VH: EVQLVESGGGLVQPGGSLRLSCTASGFSLSSYAMGWVRQAPGKGLEWVGFINAGGNTYYANWAKGRFTISRDTSKNTVYLQMNSLRAEDTAVYFCARRYSRASGWYHLWGQGTLVTVSS VL: EIVMTQSPSTLSASVGDRVIITCQASQSISSYLAWYQQKPGKAPKLLIYAASTLASGVPSRFSGSGSGAEFTLTISSLQPDDFATYYCQSYSYSSGIDYGDVFGQGTKLTVL | binds

These binders were tested against T2, Human PTK7 Protein, His Tag, Acro … (assay: BLI (Octet), antibody on anti-human Fc sensor, 50 nM PTK7, dissociation at pH 7.4 or 5.4; 1 = pH dependent binding relative to parent).

Row | Binder | binding result
2 | MYT11197 (antibody, V domains shown, HC variant of MYT9460, sub at HCV pos 57 (H2 08)) VH: EVQLVESGGGLVQPGGSLRLSCTASGIDLSSYVMGWVRQAPGKGLEWVGYIYGGGGHYYATWARGRFTISRDTSKNTVYLQMNSLRAEDTAVYFCARAAADFYFNLWGQGTLVTVSS VL: EIVMTQSPSTLSASVGDRVIITCQASQSISSYLAWYQQKPGKAPKLLIYDISDLASGVPSRFSGSGSGAEFTLTISSLQPDDFATYYCQSYYWISNSGAAFGQGTKLTVL | binds
3 | MYT11210 (antibody, V domains shown, HC variant of MYT9460, sub at HCV pos 100 (H3 05)) VH: EVQLVESGGGLVQPGGSLRLSCTASGIDLSSYVMGWVRQAPGKGLEWVGYIYGGGGTYYATWARGRFTISRDTSKNTVYLQMNSLRAEDTAVYFCARAAHDFYFNLWGQGTLVTVSS VL: EIVMTQSPSTLSASVGDRVIITCQASQSISSYLAWYQQKPGKAPKLLIYDISDLASGVPSRFSGSGSGAEFTLTISSLQPDDFATYYCQSYYWISNSGAAFGQGTKLTVL | binds
4 | MYT11213 (antibody, V domains shown, HC variant of MYT9460, sub at HCV pos 103 (H3 08)) VH: EVQLVESGGGLVQPGGSLRLSCTASGIDLSSYVMGWVRQAPGKGLEWVGYIYGGGGTYYATWARGRFTISRDTSKNTVYLQMNSLRAEDTAVYFCARAAADFHFNLWGQGTLVTVSS VL: EIVMTQSPSTLSASVGDRVIITCQASQSISSYLAWYQQKPGKAPKLLIYDISDLASGVPSRFSGSGSGAEFTLTISSLQPDDFATYYCQSYYWISNSGAAFGQGTKLTVL | binds
5 | MYT11221 (antibody, V domains shown, LC variant of MYT9460, sub at LCV pos 25 (L1 02)) VH: EVQLVESGGGLVQPGGSLRLSCTASGIDLSSYVMGWVRQAPGKGLEWVGYIYGGGGTYYATWARGRFTISRDTSKNTVYLQMNSLRAEDTAVYFCARAAADFYFNLWGQGTLVTVSS VL: EIVMTQSPSTLSASVGDRVIITCQHSQSISSYLAWYQQKPGKAPKLLIYDISDLASGVPSRFSGSGSGAEFTLTISSLQPDDFATYYCQSYYWISNSGAAFGQGTKLTVL | binds
6 | MYT11222 (antibody, V domains shown, LC variant of MYT9460, sub at LCV pos 26 (L1 03)) VH: EVQLVESGGGLVQPGGSLRLSCTASGIDLSSYVMGWVRQAPGKGLEWVGYIYGGGGTYYATWARGRFTISRDTSKNTVYLQMNSLRAEDTAVYFCARAAADFYFNLWGQGTLVTVSS VL: EIVMTQSPSTLSASVGDRVIITCQAHQSISSYLAWYQQKPGKAPKLLIYDISDLASGVPSRFSGSGSGAEFTLTISSLQPDDFATYYCQSYYWISNSGAAFGQGTKLTVL | binds
7 | MYT11224 (antibody, V domains shown, LC variant of MYT9460, sub at LCV pos 28 (L1 05)) VH: EVQLVESGGGLVQPGGSLRLSCTASGIDLSSYVMGWVRQAPGKGLEWVGYIYGGGGTYYATWARGRFTISRDTSKNTVYLQMNSLRAEDTAVYFCARAAADFYFNLWGQGTLVTVSS VL: EIVMTQSPSTLSASVGDRVIITCQASQHISSYLAWYQQKPGKAPKLLIYDISDLASGVPSRFSGSGSGAEFTLTISSLQPDDFATYYCQSYYWISNSGAAFGQGTKLTVL | binds
8 | MYT11225 (antibody, V domains shown, LC variant of MYT9460, sub at LCV pos 29 (L1 06)) VH: EVQLVESGGGLVQPGGSLRLSCTASGIDLSSYVMGWVRQAPGKGLEWVGYIYGGGGTYYATWARGRFTISRDTSKNTVYLQMNSLRAEDTAVYFCARAAADFYFNLWGQGTLVTVSS VL: EIVMTQSPSTLSASVGDRVIITCQASQSHSSYLAWYQQKPGKAPKLLIYDISDLASGVPSRFSGSGSGAEFTLTISSLQPDDFATYYCQSYYWISNSGAAFGQGTKLTVL | binds
9 | MYT11229 (antibody, V domains shown, LC variant of MYT9460, sub at LCV pos 33 (L1 10)) VH: EVQLVESGGGLVQPGGSLRLSCTASGIDLSSYVMGWVRQAPGKGLEWVGYIYGGGGTYYATWARGRFTISRDTSKNTVYLQMNSLRAEDTAVYFCARAAADFYFNLWGQGTLVTVSS VL: EIVMTQSPSTLSASVGDRVIITCQASQSISSYHAWYQQKPGKAPKLLIYDISDLASGVPSRFSGSGSGAEFTLTISSLQPDDFATYYCQSYYWISNSGAAFGQGTKLTVL | binds
10 | MYT11236 (antibody, V domains shown, LC variant of MYT9460, sub at LCV pos 55 (L2 06)) VH: EVQLVESGGGLVQPGGSLRLSCTASGIDLSSYVMGWVRQAPGKGLEWVGYIYGGGGTYYATWARGRFTISRDTSKNTVYLQMNSLRAEDTAVYFCARAAADFYFNLWGQGTLVTVSS VL: EIVMTQSPSTLSASVGDRVIITCQASQSISSYLAWYQQKPGKAPKLLIYDISDLHSGVPSRFSGSGSGAEFTLTISSLQPDDFATYYCQSYYWISNSGAAFGQGTKLTVL | binds
11 | MYT11238 (antibody, V domains shown, LC variant of MYT9460, sub at LCV pos 89 (L3 01)) VH: EVQLVESGGGLVQPGGSLRLSCTASGIDLSSYVMGWVRQAPGKGLEWVGYIYGGGGTYYATWARGRFTISRDTSKNTVYLQMNSLRAEDTAVYFCARAAADFYFNLWGQGTLVTVSS VL: EIVMTQSPSTLSASVGDRVIITCQASQSISSYLAWYQQKPGKAPKLLIYDISDLASGVPSRFSGSGSGAEFTLTISSLQPDDFATYYCHSYYWISNSGAAFGQGTKLTVL | binds
12 | MYT11240 (antibody, V domains shown, LC variant of MYT9460, sub at LCV pos 91 (L3 03)) VH: EVQLVESGGGLVQPGGSLRLSCTASGIDLSSYVMGWVRQAPGKGLEWVGYIYGGGGTYYATWARGRFTISRDTSKNTVYLQMNSLRAEDTAVYFCARAAADFYFNLWGQGTLVTVSS VL: EIVMTQSPSTLSASVGDRVIITCQASQSISSYLAWYQQKPGKAPKLLIYDISDLASGVPSRFSGSGSGAEFTLTISSLQPDDFATYYCQSHYWISNSGAAFGQGTKLTVL | binds
13 | MYT11244 (antibody, V domains shown, LC variant of MYT9460, sub at LCV pos 95 (L3 07)) VH: EVQLVESGGGLVQPGGSLRLSCTASGIDLSSYVMGWVRQAPGKGLEWVGYIYGGGGTYYATWARGRFTISRDTSKNTVYLQMNSLRAEDTAVYFCARAAADFYFNLWGQGTLVTVSS VL: EIVMTQSPSTLSASVGDRVIITCQASQSISSYLAWYQQKPGKAPKLLIYDISDLASGVPSRFSGSGSGAEFTLTISSLQPDDFATYYCQSYYWIHNSGAAFGQGTKLTVL | binds
14 | MYT11245 (antibody, V domains shown, LC variant of MYT9460, sub at LCV pos 96 (L3 08)) VH: EVQLVESGGGLVQPGGSLRLSCTASGIDLSSYVMGWVRQAPGKGLEWVGYIYGGGGTYYATWARGRFTISRDTSKNTVYLQMNSLRAEDTAVYFCARAAADFYFNLWGQGTLVTVSS VL: EIVMTQSPSTLSASVGDRVIITCQASQSISSYLAWYQQKPGKAPKLLIYDISDLASGVPSRFSGSGSGAEFTLTISSLQPDDFATYYCQSYYWISHSGAAFGQGTKLTVL | binds
15 | MYT11246 (antibody, V domains shown, LC variant of MYT9460, sub at LCV pos 97 (L3 09)) VH: EVQLVESGGGLVQPGGSLRLSCTASGIDLSSYVMGWVRQAPGKGLEWVGYIYGGGGTYYATWARGRFTISRDTSKNTVYLQMNSLRAEDTAVYFCARAAADFYFNLWGQGTLVTVSS VL: EIVMTQSPSTLSASVGDRVIITCQASQSISSYLAWYQQKPGKAPKLLIYDISDLASGVPSRFSGSGSGAEFTLTISSLQPDDFATYYCQSYYWISNHGAAFGQGTKLTVL | binds
16 | MYT11247 (antibody, V domains shown, LC variant of MYT9460, sub at LCV pos 98 (L3 10)) VH: EVQLVESGGGLVQPGGSLRLSCTASGIDLSSYVMGWVRQAPGKGLEWVGYIYGGGGTYYATWARGRFTISRDTSKNTVYLQMNSLRAEDTAVYFCARAAADFYFNLWGQGTLVTVSS VL: EIVMTQSPSTLSASVGDRVIITCQASQSISSYLAWYQQKPGKAPKLLIYDISDLASGVPSRFSGSGSGAEFTLTISSLQPDDFATYYCQSYYWISNSHAAFGQGTKLTVL | binds
17 | MYT11248 (antibody, V domains shown, LC variant of MYT9460, sub at LCV pos 99 (L3 11)) VH: EVQLVESGGGLVQPGGSLRLSCTASGIDLSSYVMGWVRQAPGKGLEWVGYIYGGGGTYYATWARGRFTISRDTSKNTVYLQMNSLRAEDTAVYFCARAAADFYFNLWGQGTLVTVSS VL: EIVMTQSPSTLSASVGDRVIITCQASQSISSYLAWYQQKPGKAPKLLIYDISDLASGVPSRFSGSGSGAEFTLTISSLQPDDFATYYCQSYYWISNSGHAFGQGTKLTVL | binds
18 | MYT11249 (antibody, V domains shown, LC variant of MYT9460, sub at LCV pos 100 (L3 12)) VH: EVQLVESGGGLVQPGGSLRLSCTASGIDLSSYVMGWVRQAPGKGLEWVGYIYGGGGTYYATWARGRFTISRDTSKNTVYLQMNSLRAEDTAVYFCARAAADFYFNLWGQGTLVTVSS VL: EIVMTQSPSTLSASVGDRVIITCQASQSISSYLAWYQQKPGKAPKLLIYDISDLASGVPSRFSGSGSGAEFTLTISSLQPDDFATYYCQSYYWISNSGAHFGQGTKLTVL | binds
19 | MYT11253 (antibody, V domains shown, LC variant of MYT9460, Ala sub at LCV pos 96 (L3 08)) VH: EVQLVESGGGLVQPGGSLRLSCTASGIDLSSYVMGWVRQAPGKGLEWVGYIYGGGGTYYATWARGRFTISRDTSKNTVYLQMNSLRAEDTAVYFCARAAADFYFNLWGQGTLVTVSS VL: EIVMTQSPSTLSASVGDRVIITCQASQSISSYLAWYQQKPGKAPKLLIYDISDLASGVPSRFSGSGSGAEFTLTISSLQPDDFATYYCQSYYWISASGAAFGQGTKLTVL | binds
